Assay results taken from US20200197485A1.

Target: Siglec-10Fc (human) (UniProt Q96LC7)
Experiment: Biacore (SPR): value printed under the KD line for the control Fc with Siglec-10Fc. No curve is drawn for the control Fc.

UniProt Q96LC7, sequence (Q96LC7 17-546): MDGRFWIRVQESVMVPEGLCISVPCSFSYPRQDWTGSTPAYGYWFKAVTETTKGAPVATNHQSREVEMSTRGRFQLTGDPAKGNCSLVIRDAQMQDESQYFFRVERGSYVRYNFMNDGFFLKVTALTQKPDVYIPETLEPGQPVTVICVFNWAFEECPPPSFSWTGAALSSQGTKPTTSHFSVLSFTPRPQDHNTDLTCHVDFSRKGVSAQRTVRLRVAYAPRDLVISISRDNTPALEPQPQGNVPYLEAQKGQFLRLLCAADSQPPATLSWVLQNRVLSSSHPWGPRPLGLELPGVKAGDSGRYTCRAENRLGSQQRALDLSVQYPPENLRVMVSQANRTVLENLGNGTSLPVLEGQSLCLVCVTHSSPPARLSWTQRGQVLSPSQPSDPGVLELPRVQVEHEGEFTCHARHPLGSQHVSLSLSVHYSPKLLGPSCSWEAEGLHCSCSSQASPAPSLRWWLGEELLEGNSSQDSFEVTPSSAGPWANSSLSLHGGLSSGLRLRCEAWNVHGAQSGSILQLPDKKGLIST

- Kd: 16.2 µM
Substance: control Fc
